In patent US20180194839A1 (Novartis, published 2018):

Tests used:
Experiment in all cases: ELISA, coated cytokine, Ab 10 µg/ml
[1] = molecular target: T1, recombinant mouse IL-17A/F (R&D Systems Cat#5390-IL) (mouse, UniProt Q62386 26-158; Q7TNI7 29-161, limits assumed)
T1 construct: bought heterodimer; also called mIL-17A/F; rmIL-17A/F
T1 sequence (looked up) 1: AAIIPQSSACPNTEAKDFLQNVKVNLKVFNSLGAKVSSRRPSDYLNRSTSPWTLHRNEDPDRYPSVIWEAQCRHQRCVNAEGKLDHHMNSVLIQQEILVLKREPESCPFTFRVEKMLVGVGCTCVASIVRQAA
T1 sequence (looked up) 2: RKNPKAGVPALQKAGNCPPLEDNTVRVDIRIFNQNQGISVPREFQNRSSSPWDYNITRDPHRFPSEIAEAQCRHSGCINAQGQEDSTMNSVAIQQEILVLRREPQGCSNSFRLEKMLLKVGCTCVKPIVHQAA

[2] = molecular target: T2, recombinant mouse TNFα (R&D Systems Cat#410-MT) (mouse, UniProt P06804 80-235)
T2 construct: coated at 0.5 µg/ml; also called mTNFα
T2 sequence (looked up): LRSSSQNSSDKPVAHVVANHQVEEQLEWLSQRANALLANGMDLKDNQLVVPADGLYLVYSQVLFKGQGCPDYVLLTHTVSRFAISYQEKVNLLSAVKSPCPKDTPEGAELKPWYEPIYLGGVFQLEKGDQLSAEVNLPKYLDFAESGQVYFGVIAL

[3] = molecular target: T3, recombinant mouse IL-2 (R&D Systems 402-ML-020/CF) (mouse, UniProt P04351 21-169)
T3 construct: also called mIL-2
T3 sequence (looked up): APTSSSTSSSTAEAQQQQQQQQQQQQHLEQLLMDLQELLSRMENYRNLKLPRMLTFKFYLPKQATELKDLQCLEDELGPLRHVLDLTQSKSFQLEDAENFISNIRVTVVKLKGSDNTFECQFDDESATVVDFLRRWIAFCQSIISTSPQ

[4] = molecular target: T4, recombinant mouse IL-18 (MBL Cat#B004-5) (mouse, UniProt P70380 36-192)
T4 construct: also called mIL-18
T4 sequence (looked up): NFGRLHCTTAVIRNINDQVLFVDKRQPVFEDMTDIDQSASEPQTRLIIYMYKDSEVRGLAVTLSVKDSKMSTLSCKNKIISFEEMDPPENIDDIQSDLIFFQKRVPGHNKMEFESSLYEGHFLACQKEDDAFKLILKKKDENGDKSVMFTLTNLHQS

[5] = molecular target: T5, recombinant mouse IL-1β (R&D Systems Cat#401-ML) (mouse, UniProt P10749 118-269)
T5 construct: also called mIL-1β
T5 sequence (looked up): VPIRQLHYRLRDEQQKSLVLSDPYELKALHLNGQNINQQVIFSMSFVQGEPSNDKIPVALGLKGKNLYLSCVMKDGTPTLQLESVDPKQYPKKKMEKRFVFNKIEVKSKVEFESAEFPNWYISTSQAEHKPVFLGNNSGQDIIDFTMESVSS

[6] = molecular target: T6, recombinant human IL-6 (R&D Systems Cat#206-IL-1010/CF) (human, UniProt P05231 30-212)
T6 construct: also called huIL-6

[7] = molecular target: T7, recombinant human IFNγ (Roche) (human, UniProt P01579 24-166, limits assumed)
T7 construct: also called huIFNγ
T7 sequence (looked up): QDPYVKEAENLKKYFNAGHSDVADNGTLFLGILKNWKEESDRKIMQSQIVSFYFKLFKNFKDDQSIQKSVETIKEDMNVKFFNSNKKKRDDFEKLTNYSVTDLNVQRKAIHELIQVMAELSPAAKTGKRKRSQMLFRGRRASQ

[8] = molecular target: T8, recombinant human IL-12 (R&D Systems Cat#219-IL-005/CF) (human, UniProt P29459 23-219; P29460 23-328)
T8 construct: also called huIL-12
T8 sequence (looked up) 1: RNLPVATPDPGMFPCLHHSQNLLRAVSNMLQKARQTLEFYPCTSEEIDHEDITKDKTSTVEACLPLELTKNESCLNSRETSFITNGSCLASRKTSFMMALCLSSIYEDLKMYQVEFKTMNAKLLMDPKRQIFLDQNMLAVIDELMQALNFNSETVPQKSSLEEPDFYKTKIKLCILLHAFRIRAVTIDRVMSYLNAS
T8 sequence (looked up) 2: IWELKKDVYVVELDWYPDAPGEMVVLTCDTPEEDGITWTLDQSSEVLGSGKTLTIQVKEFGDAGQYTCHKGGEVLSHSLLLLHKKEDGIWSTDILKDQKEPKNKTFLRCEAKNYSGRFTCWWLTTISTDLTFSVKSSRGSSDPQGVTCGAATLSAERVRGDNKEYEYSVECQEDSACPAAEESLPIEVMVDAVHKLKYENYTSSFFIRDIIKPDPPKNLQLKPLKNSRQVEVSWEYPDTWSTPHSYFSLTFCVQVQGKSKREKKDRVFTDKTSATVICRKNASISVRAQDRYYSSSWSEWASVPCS

[9] = molecular target: T9, recombinant human IL-4 (R&D Systems Cat#204-IL/CF) (human, UniProt P05112 25-153)
T9 construct: also called huIL-4
T9 sequence (looked up): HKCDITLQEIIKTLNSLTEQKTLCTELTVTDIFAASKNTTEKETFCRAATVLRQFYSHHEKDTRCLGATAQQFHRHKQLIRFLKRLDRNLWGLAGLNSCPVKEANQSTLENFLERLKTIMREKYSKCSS

B1: XAB4 (antibody, human IgG1, kappa, V domains shown)
VH: EVQLVESGGDLVQPGGSLRLSCAASGFTFSSYWMSWVRQAPGKGLEWVANIKQDGSEKYYVDSVKGRFTISRDNAKNSLYLQMNSLRAEDTAVYYCARDRGSLYYWGQGTLVTVSS
VL: AIQLTQSPSSLSASVGDRVTITCRPSQGINWELAWYQQKPGKAPKLLIYDASSLEQGVPSRFSGSGSGTDFTLTISSLQPEDFATYYCQQFNSYPLTFGGGTKVEIKR
notes: also called MB435 N56Q
For B1, the O.D. [1] was 3.34 O.D, the O.D. [2] was 0.065 O.D and the O.D. [3] was 0.024 O.D. It also gave an O.D. [4] of 0.054 O.D, an O.D. [5] of 0.022 O.D and an O.D. [6] of -0.015 O.D. It also gave an O.D. [7] of 0.048 O.D, an O.D. [8] of 0.009 O.D and an O.D. [9] of 0.047 O.D.

B2: XAB1 (antibody, human IgG1, kappa, V domains shown)
VH: EVQLVESGGDLVQPGGSLRLSCAASGFTFSSYWMSWVRQAPGKGLEWVANIKQDGSEKYYVDSVKGRFTISRDNAKNSLYLQMNSLRAEDTAVYYCARDRGSLYYWGQGTLVTVSS
VL: AIQLTQSPSSLSASVGDRVTITCRPSQGIISALAWYQQKPGKAPKLLIYDASSLENGVPSRFSGSGSGTDFTLTISSLQPEDFATYYCQQFNSYPLTFGGGTKVEIKR
notes: human IgG1/kappa monoclonal antibody; also called parental XAB1; XAB1 IgG
For B2, the O.D. [1] was 3.17 O.D, the O.D. [2] was 0.025 O.D and the O.D. [3] was 0.022 O.D. The O.D. [4] was 0.022 O.D, the O.D. [5] was 0.007 O.D and the O.D. [6] was -0.044 O.D. It also gave an O.D. [7] of 0.059 O.D, an O.D. [8] of -0.097 O.D and an O.D. [9] of 0.057 O.D.
